One block for each binder: values may come before it.
Columns and labels:
[1] = target: T1, NCCRP1, F-box associated domain containing (human, UniProt Q6ZVX7 1-275)
T1 construct: HuProt array protein, full-length recombinant from yeast
T1 sequence: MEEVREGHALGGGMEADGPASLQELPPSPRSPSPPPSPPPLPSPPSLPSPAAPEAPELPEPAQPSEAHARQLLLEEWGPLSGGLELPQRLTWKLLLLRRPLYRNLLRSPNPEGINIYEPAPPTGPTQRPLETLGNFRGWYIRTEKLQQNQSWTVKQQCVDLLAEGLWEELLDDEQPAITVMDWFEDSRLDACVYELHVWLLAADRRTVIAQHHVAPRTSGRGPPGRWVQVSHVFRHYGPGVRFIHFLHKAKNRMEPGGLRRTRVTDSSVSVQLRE

[2] = target: T2, coiled-coil domain containing 102A, transcript variant X1 (human, UniProt Q96A19 1-550)
T2 construct: HuProt array protein, full-length recombinant from yeast; also called CCDC102A

[3] = target: T3, RAD1 checkpoint DNA exonuclease, transcript variant 1 (human, UniProt O60671 1-282)
T3 construct: HuProt array protein, full-length recombinant from yeast
T3 sequence: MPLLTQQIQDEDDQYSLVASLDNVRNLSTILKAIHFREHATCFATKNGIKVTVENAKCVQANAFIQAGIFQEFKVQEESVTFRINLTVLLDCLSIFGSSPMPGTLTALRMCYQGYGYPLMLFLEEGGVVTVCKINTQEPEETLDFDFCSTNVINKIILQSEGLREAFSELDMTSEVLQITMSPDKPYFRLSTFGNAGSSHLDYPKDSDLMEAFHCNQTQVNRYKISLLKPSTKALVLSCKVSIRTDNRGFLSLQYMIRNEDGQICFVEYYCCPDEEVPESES

[4] = target: T4, Microtubule associated scaffold protein 1 (human, UniProt Q9ULD2 875-1270)
T4 construct: HuProt array protein, full-length recombinant from yeast; also called MTUS1
T4 sequence: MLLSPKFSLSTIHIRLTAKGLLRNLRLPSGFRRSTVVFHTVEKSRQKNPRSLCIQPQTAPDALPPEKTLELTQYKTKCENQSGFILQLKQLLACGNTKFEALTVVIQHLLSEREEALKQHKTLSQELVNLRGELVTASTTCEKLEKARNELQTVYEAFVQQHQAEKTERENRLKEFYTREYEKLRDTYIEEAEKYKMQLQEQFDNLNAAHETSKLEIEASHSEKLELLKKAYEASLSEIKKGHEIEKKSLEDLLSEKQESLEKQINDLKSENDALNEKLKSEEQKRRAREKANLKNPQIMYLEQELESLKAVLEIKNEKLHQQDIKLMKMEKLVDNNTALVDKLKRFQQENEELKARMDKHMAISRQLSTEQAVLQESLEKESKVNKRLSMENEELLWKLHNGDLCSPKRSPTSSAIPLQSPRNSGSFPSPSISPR

[5] = target: T5, Atpase secretory pathway ca2+ transporting 1 (human, UniProt P98194 1-909)
T5 construct: HuProt array protein, full-length recombinant from yeast; also called ATP2C1
T5 sequence: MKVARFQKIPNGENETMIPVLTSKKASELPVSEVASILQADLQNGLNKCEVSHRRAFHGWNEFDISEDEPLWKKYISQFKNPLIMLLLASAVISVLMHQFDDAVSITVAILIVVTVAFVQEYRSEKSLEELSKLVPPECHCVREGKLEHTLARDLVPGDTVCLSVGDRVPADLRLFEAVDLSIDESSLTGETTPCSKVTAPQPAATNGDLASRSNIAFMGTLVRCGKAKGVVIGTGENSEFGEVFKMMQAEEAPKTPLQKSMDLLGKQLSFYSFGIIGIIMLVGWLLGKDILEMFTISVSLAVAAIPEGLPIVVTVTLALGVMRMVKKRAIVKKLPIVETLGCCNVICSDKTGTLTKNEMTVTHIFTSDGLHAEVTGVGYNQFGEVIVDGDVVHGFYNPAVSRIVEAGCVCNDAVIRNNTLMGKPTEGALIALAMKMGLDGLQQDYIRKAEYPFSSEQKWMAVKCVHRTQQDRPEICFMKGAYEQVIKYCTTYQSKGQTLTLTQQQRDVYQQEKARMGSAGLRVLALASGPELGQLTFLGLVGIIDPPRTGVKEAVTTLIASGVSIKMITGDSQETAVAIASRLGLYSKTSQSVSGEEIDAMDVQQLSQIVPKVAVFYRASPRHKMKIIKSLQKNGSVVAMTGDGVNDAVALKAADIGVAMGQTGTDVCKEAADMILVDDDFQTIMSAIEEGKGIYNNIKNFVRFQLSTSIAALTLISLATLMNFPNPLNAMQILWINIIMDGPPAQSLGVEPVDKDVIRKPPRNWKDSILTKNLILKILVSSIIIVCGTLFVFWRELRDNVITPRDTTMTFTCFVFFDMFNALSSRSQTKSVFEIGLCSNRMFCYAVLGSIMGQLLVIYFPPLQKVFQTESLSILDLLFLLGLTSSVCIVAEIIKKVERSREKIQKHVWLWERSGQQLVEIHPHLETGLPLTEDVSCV

[6] = target: T6, teashirt zinc finger homeobox 2, transcript variant 1 (human, UniProt Q9NRE2 1-1034)
T6 construct: HuProt array protein, full-length recombinant from yeast; also called TSHZ2
T6 sequence: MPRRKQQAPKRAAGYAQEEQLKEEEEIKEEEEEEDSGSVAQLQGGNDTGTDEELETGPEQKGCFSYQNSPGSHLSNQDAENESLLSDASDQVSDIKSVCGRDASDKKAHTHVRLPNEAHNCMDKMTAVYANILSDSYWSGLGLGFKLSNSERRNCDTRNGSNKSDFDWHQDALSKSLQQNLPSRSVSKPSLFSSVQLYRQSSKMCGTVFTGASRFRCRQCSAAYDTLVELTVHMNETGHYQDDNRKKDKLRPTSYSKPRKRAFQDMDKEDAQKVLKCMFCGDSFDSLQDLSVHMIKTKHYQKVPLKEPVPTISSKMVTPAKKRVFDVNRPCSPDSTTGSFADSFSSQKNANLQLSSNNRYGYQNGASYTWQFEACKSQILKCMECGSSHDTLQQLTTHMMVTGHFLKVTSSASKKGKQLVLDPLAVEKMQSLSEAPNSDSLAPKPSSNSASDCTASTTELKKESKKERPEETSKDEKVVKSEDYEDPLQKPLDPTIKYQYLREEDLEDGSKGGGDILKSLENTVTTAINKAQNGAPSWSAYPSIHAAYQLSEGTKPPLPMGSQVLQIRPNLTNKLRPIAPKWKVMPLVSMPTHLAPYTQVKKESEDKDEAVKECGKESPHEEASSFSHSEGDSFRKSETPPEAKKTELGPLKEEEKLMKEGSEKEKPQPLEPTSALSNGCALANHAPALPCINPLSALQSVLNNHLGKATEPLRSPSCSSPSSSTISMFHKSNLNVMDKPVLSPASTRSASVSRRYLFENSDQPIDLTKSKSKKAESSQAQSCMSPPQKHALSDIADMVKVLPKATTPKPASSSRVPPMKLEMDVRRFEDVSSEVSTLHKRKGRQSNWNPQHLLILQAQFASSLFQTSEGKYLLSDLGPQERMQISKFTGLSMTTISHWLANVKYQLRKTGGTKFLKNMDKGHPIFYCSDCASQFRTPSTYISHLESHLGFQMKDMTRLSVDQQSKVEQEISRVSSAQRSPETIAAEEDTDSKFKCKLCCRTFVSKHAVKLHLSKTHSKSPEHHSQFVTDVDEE

[7] = target: T7, RNA binding motif protein 47, transcript variant X10 (human, UniProt A0AV96 1-593)
T7 construct: HuProt array protein, full-length recombinant from yeast; also called RBM47
T7 sequence: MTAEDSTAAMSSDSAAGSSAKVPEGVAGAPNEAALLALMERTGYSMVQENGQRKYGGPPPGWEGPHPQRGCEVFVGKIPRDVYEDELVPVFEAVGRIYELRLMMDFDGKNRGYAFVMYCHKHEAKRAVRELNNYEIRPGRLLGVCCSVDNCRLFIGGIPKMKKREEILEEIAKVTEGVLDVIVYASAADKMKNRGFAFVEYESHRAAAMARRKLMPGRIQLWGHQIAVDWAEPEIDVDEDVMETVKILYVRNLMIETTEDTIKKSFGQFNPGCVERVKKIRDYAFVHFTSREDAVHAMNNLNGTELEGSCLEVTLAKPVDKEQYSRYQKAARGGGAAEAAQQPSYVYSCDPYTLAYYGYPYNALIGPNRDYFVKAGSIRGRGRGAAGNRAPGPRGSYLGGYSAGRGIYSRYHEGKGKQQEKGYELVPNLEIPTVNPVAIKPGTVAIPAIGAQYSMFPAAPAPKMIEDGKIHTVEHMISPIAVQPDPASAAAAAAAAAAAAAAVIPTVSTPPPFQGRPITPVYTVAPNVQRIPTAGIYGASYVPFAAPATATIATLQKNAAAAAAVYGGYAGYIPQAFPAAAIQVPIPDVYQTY

T2 sequence (Q96A19 other isoform, or with tags, fused parts or gaps mutant limits assumed): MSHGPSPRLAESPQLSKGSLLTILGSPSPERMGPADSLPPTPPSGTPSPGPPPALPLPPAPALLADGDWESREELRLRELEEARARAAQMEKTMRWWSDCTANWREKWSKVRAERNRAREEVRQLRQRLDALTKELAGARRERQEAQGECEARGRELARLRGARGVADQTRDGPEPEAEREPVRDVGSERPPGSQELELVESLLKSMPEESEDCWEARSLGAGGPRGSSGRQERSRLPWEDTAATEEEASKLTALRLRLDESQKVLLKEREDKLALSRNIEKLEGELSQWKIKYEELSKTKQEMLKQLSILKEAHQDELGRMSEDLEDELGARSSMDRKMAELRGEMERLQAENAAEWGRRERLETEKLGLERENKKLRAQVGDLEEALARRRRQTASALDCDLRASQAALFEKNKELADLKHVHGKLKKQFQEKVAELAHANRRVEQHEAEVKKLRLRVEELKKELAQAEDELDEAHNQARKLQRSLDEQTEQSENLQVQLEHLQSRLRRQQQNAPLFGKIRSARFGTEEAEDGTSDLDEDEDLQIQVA

- binding result [5]: binds
- binding result [6]: binds
B3: TESO1006 (antibody, V domains shown)
VH: QLHLQESGPGLVKPSETLSLTCTVSGGSVSSSSYYWGWVRQPPGKGLEWIGHVYYSGRTYYNPSLKSRATISLDTSKNQFSLKLSSLTATDTAVYYCATIVAAYSYGFEFDPWGQGILVIVSS
VL: QSVLTQPPSVSAAPGQKVTISCSGGSSNIGNNYVSWYQQLPGTAPKLIIYDNDKRPAGIPDRFSGSKSGSSATLGITGLQNGDEAEYYCGTWDSSLGGGVFGGGTKVTVLG
notes: detected with anti-human IgG Fc

- binding result [7]: binds
B4: THNS1004 (antibody, V domains shown)
VH: EVQLVESGGGLVQPGGSLRLSCAASGFTFSSNWMSWVRQAPGKGLEWVANIKEDGSEKYYVDSVKGRFTIFRDNAKNSLYLQMNSLRAEDTAVYYCARVPSRYGRSRGAFDIWGQGTMVTVSS
VL: DIQMTQSPSSLSASVGDRVTITCRASQSISSYLNWYQQKPGKAPKLLIYAASSLQSGVPSRFSGSGSGTDFTLAISSLQPEDFATYYCHQTYSTRLTFGGGTEVEIKR
notes: as for B3

Second part, the binder before the results:

B1: THNS1003 (antibody, V domains shown)
VH: VVQLVESGGGLVQPGGSLRLSCAASGFTFNNYEMNWVRQAPGKGLEWVSYISSSGSTIYYADSVKGRFTISRDNAKNSLYLQMNSLRAEDTAVYYCARQMVTTRGYWGQGTLVTVSS
VL: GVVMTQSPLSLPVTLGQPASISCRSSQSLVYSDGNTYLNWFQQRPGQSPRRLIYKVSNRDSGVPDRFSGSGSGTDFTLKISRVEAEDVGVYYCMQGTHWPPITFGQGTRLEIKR
notes: as for B3
- binding result [1]: binds
- binding result [2]: binds

B2: THNS1006 (antibody, V domains shown)
VH: QVQLVESGGGVVQPGRSLRLSCAASGFTFSSYGMHWVRQAPGKGLEWVAIISYDGSNKYYADSVKGRFTISRDKSKNTLYLQMNSLRAEDTAVYYCAKSKGNYRDAMDVWGQGTTVTVSS
VL: SYVLTQPPSVSVAPGQTARITCGGNNIGSKSVHWYQQKPGQAPVLVVYDDSDRPSGIPERFSGSNSGNTATLTISRVEAGDEADYYCQVWDSSSDPWVFGGGTKLTVLG
notes: as for B3
- binding result [3]: binds
- binding result [4]: binds
